Values of other authors in PMC7689341.
pKd: −log10 of the molar value. Where two headings read alike, the source gives them in different places. Blank lines part the entries; values can stand above or below the substance they belong to.

Tests used:
IFNAR2 (Homo sapiens) [1] = biological target: IFNAR2 (Homo sapiens) (UniProt P48551)
IFNAR1 (Homo sapiens) = IFNAR1 (Homo sapiens) (UniProt P17181)
IFNAR2 (Homo sapiens) [2] = biological target: IFNAR2 (Homo sapiens) (UniProt P48551); remark: listed apart in the source
IFNAR2 (Mus musculus) = IFNAR2 (Mus musculus) (UniProt O35664)
Chain of IFNAR2 (Mus musculus) (O35664 22-242): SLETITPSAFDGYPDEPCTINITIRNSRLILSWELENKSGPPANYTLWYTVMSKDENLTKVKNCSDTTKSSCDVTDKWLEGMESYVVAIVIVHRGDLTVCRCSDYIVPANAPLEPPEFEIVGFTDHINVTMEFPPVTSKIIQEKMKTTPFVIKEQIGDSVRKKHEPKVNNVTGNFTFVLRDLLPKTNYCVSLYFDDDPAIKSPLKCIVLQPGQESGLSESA

IFNAR1 (Mus musculus) = IFNAR1 (Mus musculus) (UniProt P33896)
Chain of IFNAR1 (Mus musculus) (P33896 27-429): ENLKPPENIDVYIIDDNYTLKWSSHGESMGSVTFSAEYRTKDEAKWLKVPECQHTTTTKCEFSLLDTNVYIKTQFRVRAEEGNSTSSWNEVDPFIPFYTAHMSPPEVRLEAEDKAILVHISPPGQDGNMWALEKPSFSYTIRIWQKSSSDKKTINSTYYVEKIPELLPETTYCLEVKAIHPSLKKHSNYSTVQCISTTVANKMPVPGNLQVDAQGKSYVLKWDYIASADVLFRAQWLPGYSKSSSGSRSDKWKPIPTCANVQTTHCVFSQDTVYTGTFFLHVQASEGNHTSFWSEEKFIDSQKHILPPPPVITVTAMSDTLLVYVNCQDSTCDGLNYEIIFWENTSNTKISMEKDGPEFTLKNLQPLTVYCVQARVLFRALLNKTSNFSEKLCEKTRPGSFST

IFNλR1 (Homo sapiens) = IFNλR1 (Homo sapiens) (UniProt Q8IU57)
Chain of IFNλR1 (Homo sapiens) (Q8IU57 21-228): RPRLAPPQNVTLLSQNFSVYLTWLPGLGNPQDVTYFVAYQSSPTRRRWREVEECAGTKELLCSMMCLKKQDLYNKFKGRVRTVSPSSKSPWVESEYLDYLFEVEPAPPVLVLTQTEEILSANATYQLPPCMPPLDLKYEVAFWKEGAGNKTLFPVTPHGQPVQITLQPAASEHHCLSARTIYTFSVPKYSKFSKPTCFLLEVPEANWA

[3] = biological target: IFNλ3/IFNλR1 complex (Homo sapiens) (UniProt Q8IZI9)
Chain of IFNλ3/IFNλR1 complex (Homo sapiens) (Q8IZI9 22-196, chain 1 of 2): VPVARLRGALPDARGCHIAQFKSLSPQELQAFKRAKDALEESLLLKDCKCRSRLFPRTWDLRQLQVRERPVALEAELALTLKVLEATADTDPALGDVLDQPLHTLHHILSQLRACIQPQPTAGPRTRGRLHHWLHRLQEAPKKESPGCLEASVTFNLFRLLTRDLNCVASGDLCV
Chain of IFNλ3/IFNλR1 complex (Homo sapiens) (Q8IU57 21-228, chain 2 of 2, further chain): as the sequence (Q8IU57 21-228) above

Chain of IFNβ (from UniProt P01574) (P01574 22-187): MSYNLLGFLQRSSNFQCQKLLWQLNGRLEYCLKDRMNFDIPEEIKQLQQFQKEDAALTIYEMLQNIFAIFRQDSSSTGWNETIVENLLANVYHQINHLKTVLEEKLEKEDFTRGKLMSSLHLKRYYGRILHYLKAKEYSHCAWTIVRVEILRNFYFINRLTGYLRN
Chain of IFNAR2 (Homo sapiens) (P48551 27-243): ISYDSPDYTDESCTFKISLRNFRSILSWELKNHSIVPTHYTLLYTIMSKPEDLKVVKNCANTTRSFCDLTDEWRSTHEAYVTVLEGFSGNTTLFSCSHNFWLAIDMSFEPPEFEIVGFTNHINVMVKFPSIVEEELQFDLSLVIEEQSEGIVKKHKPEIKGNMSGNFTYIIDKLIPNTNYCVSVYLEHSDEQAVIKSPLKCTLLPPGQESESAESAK
Chain of IFNβ (from UniProt P01575) (P01575 22-182): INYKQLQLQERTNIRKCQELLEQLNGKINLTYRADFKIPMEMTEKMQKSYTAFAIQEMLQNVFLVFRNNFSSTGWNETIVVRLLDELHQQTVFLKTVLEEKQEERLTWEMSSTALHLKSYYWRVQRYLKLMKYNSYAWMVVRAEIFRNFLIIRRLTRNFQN
Chain of IFNλ3 (Q8IZI9 22-196): as the sequence (Q8IZI9 22-196, chain 1 of 2) above
Chain of IL-10R2 (Q08334 20-220): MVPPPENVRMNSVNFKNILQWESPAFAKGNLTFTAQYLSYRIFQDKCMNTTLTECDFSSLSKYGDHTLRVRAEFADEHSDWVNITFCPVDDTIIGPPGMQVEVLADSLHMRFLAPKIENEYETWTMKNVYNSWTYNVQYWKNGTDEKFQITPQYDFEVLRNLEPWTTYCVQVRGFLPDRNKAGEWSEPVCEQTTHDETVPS
Chain of IFNAR1 (Homo sapiens) (P17181 28-436): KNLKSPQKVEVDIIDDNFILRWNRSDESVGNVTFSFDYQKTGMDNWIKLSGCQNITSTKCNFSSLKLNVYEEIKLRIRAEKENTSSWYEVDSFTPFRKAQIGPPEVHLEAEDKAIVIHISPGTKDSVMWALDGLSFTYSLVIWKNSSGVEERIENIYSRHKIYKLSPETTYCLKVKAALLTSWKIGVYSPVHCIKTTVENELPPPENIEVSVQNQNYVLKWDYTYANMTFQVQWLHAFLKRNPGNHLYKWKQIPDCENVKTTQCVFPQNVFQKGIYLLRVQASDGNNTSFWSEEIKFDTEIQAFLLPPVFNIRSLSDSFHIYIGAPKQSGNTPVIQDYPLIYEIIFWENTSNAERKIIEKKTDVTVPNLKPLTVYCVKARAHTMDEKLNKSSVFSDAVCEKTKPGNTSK

- pKd (IFNAR2 (Homo sapiens) [1]): 7.00
Substance: IFNα1 (from UniProt P0DY56)

- pKd (IFNAR1 (Homo sapiens)): 7.52
- pKd (IFNAR2 (Homo sapiens) [2]): 10.00
Substance: IFNβ (from UniProt P01574)

- pKd (IFNAR2 (Mus musculus)): 5.77
- pKd (IFNAR1 (Mus musculus)): 8.00
Substance: IFNβ (from UniProt P01575)

- pKd (IFNλR1 (Homo sapiens)): 6.07
Substance: IFNλ3 (from UniProt Q8IZI9)

- pKd [3]: 4.82
Substance: IL-10R2 (from UniProt Q08334)
